Broadly, the stoichiometry N is a count of units in the complex or per binding partner.

From PMC8464039 (Nucleic Acids Research, 2021) come the findings set out here.

One series has as its target T1, CsyRE3 (Pseudomonas aeruginosa, UniProt Q02ML9;Q02MM0;Q02MM1;Q02MM2 1-434;1-327;1-342;1-187, R207E;R219E;R258E).
T1 sequence 1: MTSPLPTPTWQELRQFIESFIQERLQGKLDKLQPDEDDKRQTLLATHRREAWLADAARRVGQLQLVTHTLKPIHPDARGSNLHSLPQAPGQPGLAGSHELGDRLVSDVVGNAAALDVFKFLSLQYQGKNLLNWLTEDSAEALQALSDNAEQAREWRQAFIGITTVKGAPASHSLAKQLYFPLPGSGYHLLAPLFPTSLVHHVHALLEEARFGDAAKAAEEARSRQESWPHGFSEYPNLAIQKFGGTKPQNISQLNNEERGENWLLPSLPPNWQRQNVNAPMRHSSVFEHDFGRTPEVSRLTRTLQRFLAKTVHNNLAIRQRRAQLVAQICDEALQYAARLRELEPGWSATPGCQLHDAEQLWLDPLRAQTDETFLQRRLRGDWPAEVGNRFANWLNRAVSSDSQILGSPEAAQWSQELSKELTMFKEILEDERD
T1 sequence 2: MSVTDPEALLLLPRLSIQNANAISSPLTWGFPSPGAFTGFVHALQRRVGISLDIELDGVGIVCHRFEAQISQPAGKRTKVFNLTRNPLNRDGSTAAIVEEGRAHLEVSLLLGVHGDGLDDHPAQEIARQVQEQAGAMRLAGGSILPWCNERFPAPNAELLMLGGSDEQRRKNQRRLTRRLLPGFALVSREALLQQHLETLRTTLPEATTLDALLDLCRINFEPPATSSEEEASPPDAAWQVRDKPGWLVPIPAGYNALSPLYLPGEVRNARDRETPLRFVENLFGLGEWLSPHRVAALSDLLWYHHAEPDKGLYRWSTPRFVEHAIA
T1 sequence 3: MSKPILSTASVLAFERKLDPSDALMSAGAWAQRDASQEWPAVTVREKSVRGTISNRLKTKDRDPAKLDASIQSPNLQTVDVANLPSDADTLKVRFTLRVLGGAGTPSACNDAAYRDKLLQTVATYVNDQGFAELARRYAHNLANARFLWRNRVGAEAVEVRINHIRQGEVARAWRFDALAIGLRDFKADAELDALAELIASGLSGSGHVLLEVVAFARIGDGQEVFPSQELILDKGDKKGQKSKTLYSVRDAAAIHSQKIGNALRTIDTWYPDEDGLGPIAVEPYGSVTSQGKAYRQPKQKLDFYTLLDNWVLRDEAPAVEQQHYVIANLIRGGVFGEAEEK
T1 sequence 4: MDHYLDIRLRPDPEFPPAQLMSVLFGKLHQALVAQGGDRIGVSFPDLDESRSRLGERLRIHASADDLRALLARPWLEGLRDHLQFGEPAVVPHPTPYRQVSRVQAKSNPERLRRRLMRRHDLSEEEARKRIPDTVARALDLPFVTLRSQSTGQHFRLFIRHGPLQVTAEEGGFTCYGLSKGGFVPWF
Put plainly: EMSA.

In series [1] the target is T2, Csy complex (crRNA-guided surveillance complex) (Pseudomonas aeruginosa, UniProt Q02ML9;Q02MM0;Q02MM1;Q02MM2 1-434;1-327;1-342;1-187).
T2 sequence 1: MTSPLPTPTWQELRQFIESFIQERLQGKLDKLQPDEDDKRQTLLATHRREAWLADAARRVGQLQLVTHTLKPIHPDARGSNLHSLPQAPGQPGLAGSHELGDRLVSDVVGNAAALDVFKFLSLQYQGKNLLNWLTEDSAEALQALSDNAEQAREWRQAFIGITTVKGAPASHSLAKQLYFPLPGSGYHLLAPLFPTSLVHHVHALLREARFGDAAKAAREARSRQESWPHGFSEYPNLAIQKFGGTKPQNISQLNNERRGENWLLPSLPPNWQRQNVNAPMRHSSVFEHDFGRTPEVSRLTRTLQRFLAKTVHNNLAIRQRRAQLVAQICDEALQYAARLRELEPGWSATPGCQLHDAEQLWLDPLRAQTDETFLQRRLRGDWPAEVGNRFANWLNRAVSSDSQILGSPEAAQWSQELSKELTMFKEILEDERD
T2 sequence 2: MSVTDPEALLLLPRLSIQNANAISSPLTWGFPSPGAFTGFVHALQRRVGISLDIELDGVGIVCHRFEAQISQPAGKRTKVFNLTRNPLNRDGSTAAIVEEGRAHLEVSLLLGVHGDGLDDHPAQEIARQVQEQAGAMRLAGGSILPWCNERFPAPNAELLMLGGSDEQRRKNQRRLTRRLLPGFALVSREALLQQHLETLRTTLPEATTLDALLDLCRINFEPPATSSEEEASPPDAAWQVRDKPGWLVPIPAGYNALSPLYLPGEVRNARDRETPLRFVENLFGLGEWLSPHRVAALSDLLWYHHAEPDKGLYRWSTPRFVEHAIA
T2 sequence 3: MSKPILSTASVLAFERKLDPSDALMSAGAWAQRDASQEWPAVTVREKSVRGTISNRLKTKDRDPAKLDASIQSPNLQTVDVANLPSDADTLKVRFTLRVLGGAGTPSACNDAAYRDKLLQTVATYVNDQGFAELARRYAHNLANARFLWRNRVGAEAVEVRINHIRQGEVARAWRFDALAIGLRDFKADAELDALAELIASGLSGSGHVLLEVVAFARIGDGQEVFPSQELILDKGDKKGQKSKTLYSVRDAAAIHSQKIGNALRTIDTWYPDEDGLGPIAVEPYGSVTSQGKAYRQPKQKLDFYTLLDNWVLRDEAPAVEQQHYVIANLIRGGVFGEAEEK
T2 sequence 4: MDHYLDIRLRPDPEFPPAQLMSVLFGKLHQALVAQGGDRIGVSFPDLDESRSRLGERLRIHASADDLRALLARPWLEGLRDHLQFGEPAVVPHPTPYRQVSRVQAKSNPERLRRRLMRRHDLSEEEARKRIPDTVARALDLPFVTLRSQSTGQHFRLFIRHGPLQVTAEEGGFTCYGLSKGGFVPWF
Put plainly: EMSA. (In general: Mobility shift assays separate free from complexed probe on a gel.)

The target of series [2] is T2, Csy complex (crRNA-guided surveillance …). Put plainly: competition.
The series “cryo-EM structure” deals with the molecule itself. As to the kind of experiment: cryo-EM structure.

B1: dsDNANS (non-specific, 54 bp) (dsDNA)
DNA 1: GAGCGACTACGACATGAGCGCGCAGCTAAGACCGCCCGTAGATGCGTCGAGCGT
DNA 2: ACGCTCGACGCATCTACGGGCGGTCTTAGCTGCGCGCTCATGTCGTAGTCGCTC
Regarding B1, the binding result (in the series with CsyRE3; in series [1]) was “no binding” in each case.

B2: dsDNANS unlabeled (dsDNA)
DNA 1: GAGCGACTACGACATGAGCGCGCAGCTAAGACCGCCCGTAGATGCGTCGAGCGT
DNA 2: ACGCTCGACGCATCTACGGGCGGTCTTAGCTGCGCGCTCATGTCGTAGTCGCTC
Turning to B2, the binding result in series [2] is on record as “no binding”.

B3: dsDNASP (specific target, 54 bp) (dsDNA)
DNA 1: GGAAGCCATCCAGGTAGACGCGGACATCAAGCCCGCCGTGAAGGTGCAGCTGCT
DNA 2: AGCAGCTGCACCTTCACGGCGGGCTTGATGTCCGCGTCTACCTGGATGGCTTCC
For B3, the binding result in the series with CsyRE3 is “no binding”; in series [1], “binds”.

B4: Cas7f subunit of the Csy complex (natural protein, P. aeruginosa)
chain: MSKPILSTASVLAFERKLDPSDALMSAGAWAQRDASQEWPAVTVREKSVRGTISNRLKTKDRDPAKLDASIQSPNLQTVDVANLPSDADTLKVRFTLRVLGGAGTPSACNDAAYRDKLLQTVATYVNDQGFAELARRYAHNLANARFLWRNRVGAEAVEVRINHIRQGEVARAWRFDALAIGLRDFKADAELDALAELIASGLSGSGHVLLEVVAFARIGDGQEVFPSQELILDKGDKKGQKSKTLYSVRDAAAIHSQKIGNALRTIDTWYPDEDGLGPIAVEPYGSVTSQGKAYRQPKQKLDFYTLLDNWVLRDEAPAVEQQHYVIANLIRGGVFGEAEEK
With B4, the “stoichiometry N” value in the series “cryo-EM structure” is 6.
